The target of data set [1] is ATRX full length (UniProt P46100). The data set is described as follows: filter.
Data set [2] has the same target. Put plainly: FP.

Sequence of UniProt P46100 (P46100 whole entry): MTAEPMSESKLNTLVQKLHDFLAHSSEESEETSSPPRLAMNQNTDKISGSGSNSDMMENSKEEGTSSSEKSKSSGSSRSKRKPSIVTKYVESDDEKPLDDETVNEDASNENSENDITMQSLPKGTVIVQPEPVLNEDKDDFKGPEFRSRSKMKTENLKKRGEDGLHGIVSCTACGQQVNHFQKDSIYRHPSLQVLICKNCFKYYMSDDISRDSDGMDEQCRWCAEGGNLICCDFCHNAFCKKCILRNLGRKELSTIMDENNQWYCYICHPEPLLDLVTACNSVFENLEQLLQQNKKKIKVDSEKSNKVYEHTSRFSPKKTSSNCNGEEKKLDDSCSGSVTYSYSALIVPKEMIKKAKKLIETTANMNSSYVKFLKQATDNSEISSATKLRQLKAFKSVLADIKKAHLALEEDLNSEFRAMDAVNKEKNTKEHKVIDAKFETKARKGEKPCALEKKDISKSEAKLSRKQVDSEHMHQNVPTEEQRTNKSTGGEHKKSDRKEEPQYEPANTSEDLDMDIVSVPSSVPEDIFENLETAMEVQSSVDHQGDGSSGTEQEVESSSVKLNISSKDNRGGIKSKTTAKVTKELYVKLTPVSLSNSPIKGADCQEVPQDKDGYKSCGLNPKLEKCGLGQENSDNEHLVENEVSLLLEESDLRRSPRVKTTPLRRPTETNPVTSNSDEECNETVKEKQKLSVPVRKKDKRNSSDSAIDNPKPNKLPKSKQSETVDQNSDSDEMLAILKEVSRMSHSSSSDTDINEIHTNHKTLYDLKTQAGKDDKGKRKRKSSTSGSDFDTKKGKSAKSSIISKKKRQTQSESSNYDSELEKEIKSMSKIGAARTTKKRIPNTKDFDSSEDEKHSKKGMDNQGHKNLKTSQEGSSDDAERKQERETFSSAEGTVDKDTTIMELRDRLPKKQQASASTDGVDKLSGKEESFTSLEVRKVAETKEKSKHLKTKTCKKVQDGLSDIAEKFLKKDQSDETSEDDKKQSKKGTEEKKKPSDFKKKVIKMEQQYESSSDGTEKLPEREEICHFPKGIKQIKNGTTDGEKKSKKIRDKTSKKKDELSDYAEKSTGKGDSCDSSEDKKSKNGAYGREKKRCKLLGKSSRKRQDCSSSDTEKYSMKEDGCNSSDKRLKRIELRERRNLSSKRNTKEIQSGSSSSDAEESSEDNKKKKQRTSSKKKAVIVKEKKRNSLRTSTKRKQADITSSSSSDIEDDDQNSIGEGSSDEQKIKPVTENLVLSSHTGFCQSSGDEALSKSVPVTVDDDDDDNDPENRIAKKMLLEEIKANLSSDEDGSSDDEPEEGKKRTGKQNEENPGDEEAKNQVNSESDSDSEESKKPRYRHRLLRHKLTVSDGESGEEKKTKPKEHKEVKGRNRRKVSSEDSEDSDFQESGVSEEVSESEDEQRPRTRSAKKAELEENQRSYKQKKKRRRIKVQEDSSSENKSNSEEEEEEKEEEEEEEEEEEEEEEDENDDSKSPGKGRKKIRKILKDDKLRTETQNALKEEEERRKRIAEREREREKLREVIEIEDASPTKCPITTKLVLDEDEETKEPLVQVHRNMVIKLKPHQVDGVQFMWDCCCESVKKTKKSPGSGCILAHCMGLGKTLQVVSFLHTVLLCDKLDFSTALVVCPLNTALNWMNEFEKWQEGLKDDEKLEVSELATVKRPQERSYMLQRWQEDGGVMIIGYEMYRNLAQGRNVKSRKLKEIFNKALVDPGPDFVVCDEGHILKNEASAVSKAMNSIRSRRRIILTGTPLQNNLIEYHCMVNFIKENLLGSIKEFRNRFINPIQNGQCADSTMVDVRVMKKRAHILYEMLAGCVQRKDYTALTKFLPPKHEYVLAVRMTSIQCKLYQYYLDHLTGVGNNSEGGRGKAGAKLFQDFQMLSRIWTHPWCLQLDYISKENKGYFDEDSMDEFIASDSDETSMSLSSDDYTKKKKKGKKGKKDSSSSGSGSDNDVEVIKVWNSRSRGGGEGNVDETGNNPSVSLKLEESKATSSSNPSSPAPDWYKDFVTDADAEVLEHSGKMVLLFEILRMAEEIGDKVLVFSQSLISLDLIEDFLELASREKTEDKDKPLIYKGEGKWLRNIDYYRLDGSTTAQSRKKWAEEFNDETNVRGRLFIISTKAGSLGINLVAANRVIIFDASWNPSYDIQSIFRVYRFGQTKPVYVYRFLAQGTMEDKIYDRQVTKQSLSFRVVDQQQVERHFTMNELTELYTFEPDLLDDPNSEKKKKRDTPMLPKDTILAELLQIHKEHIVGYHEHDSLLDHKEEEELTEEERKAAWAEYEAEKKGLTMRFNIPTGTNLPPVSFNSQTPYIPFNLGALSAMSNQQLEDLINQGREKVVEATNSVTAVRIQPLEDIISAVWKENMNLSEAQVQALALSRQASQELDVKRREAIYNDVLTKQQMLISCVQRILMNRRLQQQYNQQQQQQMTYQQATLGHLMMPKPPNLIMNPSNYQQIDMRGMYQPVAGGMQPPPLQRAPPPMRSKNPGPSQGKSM

Usually Kd stands for the equilibrium constant for the complex coming apart. In the case of Hotair dsDNA, the Kd with ATRX full length [1] (Kd>>200 nM) is more than 200 nM.
For MBP dsDNA, the Kd with ATRX full length [1] (Kd>>200 nM) is more than 200 nM.
For MBP mRNA first 300 nt, the Kd with ATRX full length [1] (Kd>>200 nM) was more than 200 nM.
Turning to P4-P6 ribozyme RNA, the dissociation constant (Kd) with ATRX full length [1] (Kd>>200 nM) is more than 200 nM.
With Repeat A I-II RNA, in the data set with ATRX full length [1] (+/-0.89, double-filter binding), the Kd came out at 9.96 nM.
For the substance Repeat A III-IV RNA, the Kd with ATRX full length [1] (+/-3.35, double-filter binding) stood at 17.9 nM.
In the data set with ATRX full length [1] (unit not printed with value, nM by context), Repeat A dsDNA showed a Kd of 15.7 nM.
Substance Repeat A ssDNA yielded a Kd with ATRX full length [1] (could not bind well, Kd>>200 nM) of more than 200 nM.
Xist Repeat A I-IV RNA came in with a Kd with ATRX full length [2] of 5.41 nM.
